Assay results: PMC8139713
pKd: −log10 of the molar value.

Target: ACE2-Fc (soluble human ACE2 fused to human IgG Fc) (human) (UniProt Q9BYF1)
Assay: BLI

Chain of ACE2-Fc (soluble human ACE2 fused to human IgG Fc) (human) (Q9BYF1 18-738): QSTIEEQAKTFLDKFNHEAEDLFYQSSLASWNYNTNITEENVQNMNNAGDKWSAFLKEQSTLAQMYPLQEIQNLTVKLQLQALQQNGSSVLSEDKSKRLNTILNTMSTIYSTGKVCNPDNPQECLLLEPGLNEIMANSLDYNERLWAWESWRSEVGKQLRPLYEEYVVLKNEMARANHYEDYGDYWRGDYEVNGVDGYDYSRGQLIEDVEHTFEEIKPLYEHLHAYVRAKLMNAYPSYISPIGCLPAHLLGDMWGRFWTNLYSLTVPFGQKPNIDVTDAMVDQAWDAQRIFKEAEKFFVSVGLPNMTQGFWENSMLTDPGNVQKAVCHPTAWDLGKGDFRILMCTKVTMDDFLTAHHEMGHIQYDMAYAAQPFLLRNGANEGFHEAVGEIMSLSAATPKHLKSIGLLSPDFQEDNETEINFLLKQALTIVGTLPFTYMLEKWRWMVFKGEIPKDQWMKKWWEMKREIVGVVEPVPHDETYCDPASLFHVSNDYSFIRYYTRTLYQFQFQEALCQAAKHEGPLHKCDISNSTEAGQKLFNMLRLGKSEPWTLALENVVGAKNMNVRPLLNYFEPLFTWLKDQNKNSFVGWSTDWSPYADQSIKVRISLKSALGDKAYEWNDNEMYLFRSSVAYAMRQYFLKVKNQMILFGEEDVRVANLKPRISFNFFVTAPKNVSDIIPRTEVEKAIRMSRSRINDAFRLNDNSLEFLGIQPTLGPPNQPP

Substance: wild-type SARS-CoV-1 S-Trimer (from UniProt P59594 14-1193) (domain or fragment)
- pKd: 8.92
